According to publication PMC6450558:

Substrate: CC(=O)N[C@H]1[C@H]([C@H](O)[C@H](O)CO)O[C@](OP(=O)(O)OC[C@H]2O[C@@H](n3ccc(N)nc3=O)[C@H](O)[C@@H]2O)(C(=O)O)C[C@@H]1O
Experiment: sialyltransferase kinetics, donor varied
Format: biochemical, Homo sapiens
Conditions: acceptor LacNAc-butyl (11), fixed concentration

Row | Protein | Km | kcat | kcat/Km
1 | human ST3Gal-IV (Homo sapiens) (protein) MVSKSRWKLLAMLALVLVVMVWYSISREDRYIELFYFPIPEKKEPCLQGEAESKASKLFGNYSRDQPIFLRLEDYFWVKTPSAYELPYGTKGSEDLLLRVLAITSSSIPKNIQSLRCRRCVVVGNGHRLRNSSLGDAINKYDVVIRLNNAPVAGYEGDVGSKTTMRLFYPESAHFDPKVENNPDTLLVLVAFKAMDFHWIETILSDKKRVRKGFWKQPPLIWDVNPKQIRILNPFFMEIAADKLLSLPMQQPRKIKQKPTTGLLAITLALHLCDLVHIAGFGYPDAYNKKQTIHYYEQITLKSMAGSGHNVSQEALAIKRMLEMGAIKNLTSF | 300 ± 66 µM | 0.0233 ± 0.00167 s⁻¹ | 78.3 ± 25 M⁻¹ s⁻¹
2 | human ST6Gal-I (Homo sapiens) (protein) MIHTNLKKKFSCCVLVFLLFAVICVWKEKKKGSYYDSFKLQTKEFQVLKSLGKLAMGSDSQSVSSSSTQDPHRGRQTLGSLRGLAKAKPEASFQVWNKDSSSKNLIPRLQKIWKNYLSMNKYKVSYKGPGPGIKFSAEALRCHLRDHVNVSMVEVTDFPFNTSEWEGYLPKESIRTKAGPWGRCAVVSSAGSLKSSQLGREIDDHDAVLRFNGAPTANFQQDVGTKTTIRLMNSQLVTTEKRFLKDSLYNEGILIVWDPSVYHSDIPKWYQNPDYNFFNNYKTYRKLHPNQPFYILKPQMPWELWDILQEISPEEIQPNPPSSGMLGIIIMMTLCDQVDIYEFLPSKRKTDVCYYYQKFFDSACTMGAYHPLLYEKNLVKHLNQGTDEDIYLLGKATLPGFRTIHC | 119 ± 16 µM | 0.183 ± 0.00667 s⁻¹ | 1530 ± 417 M⁻¹ s⁻¹
